Measured values reported in the domain aggregation screens of Martell et al. (2025).

assay: soluble fraction after stress (log2 fold change); higher = more stays soluble; pooled small domains, quantitative proteomics; conditions: stress: 50 degC
Outline: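 After stress at 50°C, the amount of each protein still soluble was measured. This was done on pooled custom libraries of small protein domains, using high-throughput quantitative proteomics. The figure given is a base-two log fold change and stands for aggregation propensity, with higher values meaning more protein stays in solution.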

Compared with “HMISDISEIEAIIVEVLKVFPNQLQEYLDGKEKILSFFVGQVMQRTKGRANPSLVNEILKEKIKN”, “HMTIFGWQTDETGKWYRNADGTFFEAGWKEIDGAKYYFDENGYVKTGWLELDGKDYYFDEEGRYDSSKVR” is lower in “soluble fraction (log2)” value: 0.0377 for the first, -0.33 for the second.

“HMKFHENLIALRRREGWSQEELGNRIGVTRQTVSKWELGLTTPELEKLVQLADVFGMTTDQLVGR” and “HMRQQQISAAIKTSVNGTVDYYVRRLPERDPRGDFLEVWDDLQKVIQAAHGIQVSHDELYEYFRRLK” are within 0.2 log units of each other in “soluble fraction (log2)” value: -0.146 for the first, -0.337 for the second.

Going from “HMFEDYLRMKGLSIVSFSKQTGIPISTLRNLNKIRYDKWKIRYLEELSNVLNKTIQEIIEELKNMG” to “HMGNYEEAILAFEAAIKIDPKNADAYRKLAEAYEKTGDEDAALRTLETGAEATGDRELADLAEKKRQELDA”, the “soluble fraction (log2)” value rises from -2.32 to 0.169.

Compared with “HMKEDSTIIERIISNLSSASLKTQKAFEYKLTDLMFRFSEGEYEWSSAMEVIREELLPFLNK”, “HMFEDEYLETMYAFYETDPQALVRTGDLASSLKVSPASATEMVQRLASKGFVDYIPYKGASLTELGLAM” is lower in “soluble fraction (log2)” value: 0.0862 for the first, -0.184 for the second.

First: HMRQFEPVEGYNPYADKNELHGYEYWGAKFADSRSPEETAWIKQQIDDENEDRRFISEAGLA
Second: HMDVNPETLSYYIERADISLDELRTSVKGIDLFLTGEKQPTFNQISNIAKKLNIPTGLLLINKPIEI
The “soluble fraction (log2)” value of the first is higher: -0.0012 for the first, -0.375 for the second.

“HMTRILTEDDIVNFLIRQPDTAYIIAKSFNENERKVKELLDLLIKKNKVREEIVNGVVSYAVN” and “HMNLFKAPMPGLIRTIVVAEGQEVKKGDVILILEAMKMENALKSPADLVVKSIKVQQGQAVEKNQLLIEF” are within 0.2 log units of each other in “soluble fraction (log2)” value: -0.199 for the first, -0.0526 for the second.

“HMDEKSGWLHLAPHEGALRAALYAEHAVQEERTAPDGSQWLRLVLREKHYHQIQSKYNRRLTLHTQPDPS” and “HMDGVYLKSLKQTEQHIHWSGYAQSNAWVSTLMRNLDASPWFESPLLIEIKAATINNSRSNEFDLNVRL” are within 0.2 log units of each other in “soluble fraction (log2)” value: 0.113 for the first, 0.0711 for the second.

Going from “HMQNAETPDVAAEFRTWTSADGQFQVIAKLVKLDGESVHLERQDDGRQIAVPLGKLSSEDRLFLRGVRP” to “HMHTDDDGITEAFPHLRLLSLGEDILDLLEKSRFIRKLNNELVYYVVDFREQNSIDGRRYHPSIYHNL”, the “soluble fraction (log2)” value falls from 0.0447 to -0.258.

“HMAVNVNGIHLSSQQHEALVSIWRTGRMPEPHAGQKPWLWIQALRRRGLVSGNALRLTDKGRHIVQLLQ” and “HMEEINTAPVFKNIIEIAEYAKTKFTTVEEIPKMIEFIETANSKLDNPHDEESVNELINALSTNIRKNV” are within 0.2 log units of each other in “soluble fraction (log2)” value: 0.142 for the first, 0.193 for the second.

“HMGTRPAYAADAPNPQKRFIYHRIVDQLRNKATGAPISYRAIAAETGVSVQTVINIKNRMNQMLSEK” and “HMNIDVAAEKQQLGPNADQIVKGTVTWMQGLVAKGIWSETDFEEGKIFTATADGINAINKIRRYYGEQT” are within 0.2 log units of each other in “soluble fraction (log2)” value: -0.0598 for the first, -0.0611 for the second.

Going from “HMLTGISALKPTEAFPDEIFYEIFEIEDNIERTQYIESLRNTARQLKRVTEFNNLYKSFVLDYAQRQKQ” to “HMHLYDMYNLTEKEISIIRLIANGLNNKEISQELFLSEGTIKNNITNILAKLELRDRTQLAIFAFKNKIVI”, the “soluble fraction (log2)” value rises from -1.51 to -0.484.

“HMTNYNTEKIIPEEQAGKRLDVVLANIFPEFSRSRLKNWIIDGFILVDGKVLRPRDFVTGGELVSIDVIV” and “HMDISAFDTEFIISKFGGIRPMAQKLGVPVSTVQGWKQRQTIPQNRMGDILEAAKNYNLELTP” are within 0.2 log units of each other in “soluble fraction (log2)” value: -0.1 for the first, 0.0856 for the second.

“HMKDYKSALQELIQSGDKRVISYHTLKETGPSHNREFEAAVKLDGNIILGVGKGKTKKEAEQNAAHEALKK” and “HMDLSPEQAELAAIRGELGIKIDDYALALNIPRDRLTSYLYGRANVPAEVLISARELRYASSA” are within 0.2 log units of each other in “soluble fraction (log2)” value: 0.172 for the first, 0.00303 for the second.

Compared with “HMARSVAEFVERGRSGGSLERPKLQRMLEYIQDRPVDFVIVHKIDRLARNRADDAAITKTIRGAGAYLVST”, “HMPVRIYEISKKLGLENKEVLATAKSLGIAAAKVPSSSLDKITAEYLEEEILKSHPEVAARLK” is higher in “soluble fraction (log2)” value: -0.0402 for the first, 0.329 for the second.

Compared with “HMKIQEVDYSTFLNMLNEKSIAQVEIQDNQIAFNSNQEGNKQIYVTGRIEEDTELVNRLQAAGVQFSRV”, “HMIGPYAAAKLMTNKDFVKWLSGGVEKSVFNPNSFGQHIRRLVQISEVNPDIRDEINAVVQGLTQ” is lower in “soluble fraction (log2)” value: 0.079 for the first, -0.361 for the second.

Compared with “HMRKEEFIRELVLELKQNVSEQVILEQKRFYEEYILTEVRGGKTEEEVIASLSEPRLLAKSIIDAAEAGGD”, “HMSSEDTQSRDRARKELSNEMSRIMKRYGLDYQPRDNADDIMNRLKAAGADENTLAYVQEKLK” is higher in “soluble fraction (log2)” value: -0.155 for the first, 0.134 for the second.

Going from “HMLTEEVEISLMDMTKPTQPATIKTTATIQKGATTVMPKQIKMPEGYEFYGNYKMDQPFELTMTFVVKKI” to “HMGPPAVGAKLQVLRQARKLSLDELSRRAGVSKSMLSQVERNLANPTVAVLWRLATALGVGLADFLSP”, the “soluble fraction (log2)” value falls from 0.115 to -1.39.

“HMQRIFIDNHDRILYYSNPAGYIAGKEAVVDTMFQTQELERFLQKQSLSIRWEDGVYDRLLLGQ” and “HMAGITLHAEEGRVRIRSQSEGLVKVLDAMGREQASWPLRSKGWWFFLTEGWAPGTYFVKTESGETQRFLV” are within 0.2 log units of each other in “soluble fraction (log2)” value: 0.016 for the first, 0.0535 for the second.

Compared with “HMEAEGLDFAPMPGEIGKKLWQEVSKEAWAGWLKHQTMLVNENRLSFVDPAARKYLTEQTEAYFFG”, “HMSTALTPLTTREREVLALMAEGLTNSGIAARLVLTDRTVETHVSRILHKLGLGETTTNEHRRVLAVLRYL” is lower in “soluble fraction (log2)” value: 0.131 for the first, -1.5 for the second.

First: HMLDQGTQSRYQIMDGVRALITGDWSSHGAGLVRELSQEVARTSGLTATSERTFFVPFSALS
Second: HMKLNKRQYAYQVIRSRILDGTYVPGQRIIIDQIAKEVNSSHIPVREAIHQLESEQLIDYEPNIGAIVKG
The “soluble fraction (log2)” value of the first is lower: 0.0364 for the first, 0.285 for the second.

Going from “HMSLTAQVFTDRGKVLLSENKFTEAIDQFTKALAMDKVYIEALNRRIEAYQHLGLTELAAKDEALLGTL” to “HMNDIDKFVAALVDQDTMAGTNRAFDENDIQTMKNMSSIEDVKQYAVANGLSSGKVNNALISAGL”, the “soluble fraction (log2)” value rises from -0.755 to 0.156.

Going from “HMNRNEFMERLEYLLSDIPQEEKADAIAYYRDYLEEAGDDAGKAIQDFGSPERIAAMIRSELAG” to “HMKLTTRQTEIINIVKAEQPISGEKIAQNLGLSRATLRNDLSILTMTGLLDAKPKVGYFYTGQ”, the “soluble fraction (log2)” value falls from -0.0703 to -0.447.

First: HMKIDLKQIEGVLDELAKVKGSLITILQKTQETYGYLPKEAIIYISERTGIAESEIMGVATFYTQFRL
Second: HMGNAQELQKKLEGLKGISGIEKLESDHYAEKYLVRITQPVDHKNPAAGTFTQRVIVAHVGFDRPTILVT
The “soluble fraction (log2)” value of the first is lower: -0.105 for the first, 0.511 for the second.

First: HMRKKDGEAYVLPRPLKKGDSVLIYDIDKKGTVLQPPEKGGKTALIQAGIIQTRVPVSNLRLLE
Second: HMDMTPEEFLAWARHKPFGDPFPKTQTVTFLVPLLGVSRTNIFTWISGKVNPSKTSLLLMEALKRENR
The “soluble fraction (log2)” value of the first is higher: 0.383 for the first, -0.289 for the second.

Going from “HMAPQAETLLRQVMALPSKDRAVLYLHYYEGFSTREVGDMLHISQSAVTTRLLRARKKLKEIL” to “HMPRPRIHSVVRGDTLYGISRQYGVAMSKLASLNGLKSPYRIMVGRSLRLPSAIEAERDRTAREVVQ”, the “soluble fraction (log2)” value falls from 0.0889 to -1.45.

First: HMNIAAVIGQTGVLQDDLKAGEQGTVKADNKLWTAVLAEGEEAVKKEERVDIVAVEGVKLIVRRNI
Second: HMYLQKGISNGKVYLSIVHGYRDPVTKKVRRKTIRSLGYLEDLEKQYADPIKHFEAVVAKMNEEEALE
The “soluble fraction (log2)” value of the first is higher: 0.0397 for the first, -0.517 for the second.

First: HMQENKVLEGKVLEKKKKKVFVDLSPFGVGVIRGVNYLEAKNELKDIEEGDNIKVRVLEIDNENGFIELAL
Second: HMKTRYPNVYQDEKGKFFYQIFIGTDTNGRKKLKKGRRDALGHPFSSAYQASKEAKRVQALYANVS
The “soluble fraction (log2)” value of the first is higher: 0.271 for the first, -1.23 for the second.

“HMGILPDDVKLNIKEAKKIGFPIMLKAIHGGGGRGMMIVQSEDEFADAMKITKTEAKNSFGNGDLYFEKFF” and “HMESKPLTPSEIKKLRMDANMTQAGLAEVLGMTVKAVEAWESGRNIPSGAADKILRVMQKHPSVIGMMQS” are within 0.2 log units of each other in “soluble fraction (log2)” value: 0.238 for the first, 0.156 for the second.

First: HMTPEPVREALTFQEGRVFALAAKNMTNAEIAQSLSLKLKTVENYMSIIYQKLALKNRYELLVYARKSGV
Second: HMGNVRSWKGWTSAGGTRVQMRQGDSINSMARRYGVPIQAIVAVNGIDDPAKVQPGQSVIIPTYVY
The “soluble fraction (log2)” value of the first is lower: -0.631 for the first, 0.0448 for the second.

First: HMDPRTSSLTPQERKVLELVGGGLTNRQIAAEMFLAEKTVKNYVSSLLAKLGFERRTQAAVFIASPAF
Second: HMYVSGVPAITSIERVSTPGRRVYAGYTTVPKVIGGMGVSILTTSRGVMTDAEARRQKVGGELLAKV
The “soluble fraction (log2)” value of the first is lower: -0.541 for the first, -0.0341 for the second.

First: HMDKPVIEDVSFDDLAYMVGERVIIRTHLRSTRDGELKSFNRAGILVSLRNRPGMELEIPRSTVASAQVVW
Second: HMEGDAFAFTGDIQKDLLSITAVHPMRREAVDALIAKAGASWAIVEKLLAHGELTEAKHDGHLFYLRKF
The “soluble fraction (log2)” value of the first is lower: -2.45 for the first, -0.81 for the second.

First: HMQSNIHELQKKLNEALQALSEDHRAVVTMFDIQGMPHAEISKILGVSEGTVRSRLYYAHQQLQGHL
Second: HMPAMYKAERMNQILSILADQGDVDVGTLARQFGVSLVTIRKDLTYLESSGQLVRTHGGAIAVA
The “soluble fraction (log2)” value of the first is lower: -1.03 for the first, -0.767 for the second.

Going from “HMITMADKIDTALSEMAANNEKINVSQVAKRLGISNSAIYKFNPEKIPDIQTAQKRQKHKAEAIAVGTEN” to “HMFTNSTSSRQLTNSDDTLRLNISSQTRQMLPNGQPFGGSLSGKLLLVIYGATTRSIPAQTTPEKIVV”, the “soluble fraction (log2)” value falls from 0.215 to -0.134.

Compared with “HMDVIDDAQAMEIALEDAGLSMDDLDRYELELHTKRSELVYSIELKSGTEEYEYDLRAADGTILKRDTDF”, “HMFTKYSPDFKLSVILDMRKNNLGYGEVVRKYWNLDSYKESDRHRSQVRLWERIFLEEGVEGFM” is lower in “soluble fraction (log2)” value: -0.168 for the first, -4.64 for the second.

Going from “HMGPLDIAQLKSDFLGGDAQLARRAWDQLATKAGDEGRDFLISSLGSSDPQIRNRVALGIHES” to “HMHMELHEKIRLARELNKWSQEEVAEKLEMSPSGYAKIERGETALNIPRLEQIAEIFNIDIWELVKA”, the “soluble fraction (log2)” value falls from 0.0489 to -0.573.

Compared with “HMVSDSAELSAFVADVIKENAQAVADYKGGKTNVFGWLMGQIIKKSGGKATPAAAAALLKAELEK”, “HMTETEIVIGGKYRHYKGGEYELVSIVKHSETLEELVIYKSLSTGEMWARPKSLFVGLVDGQPRYTL” is lower in “soluble fraction (log2)” value: 0.0521 for the first, -1.85 for the second.

“HMVSTSVTVTGDLNVRADSRADSDLVGALIPGQTVTRLAVLDNGWSKIRFDDGAGTVVEGYVLSEYLQADG” and “HMPERMLEPLLNGNEIMKVTQLQPGPKVGLIRDALLQAQISGDVTDTESAKAFVQDYAKRNI” are within 0.2 log units of each other in “soluble fraction (log2)” value: 0.0817 for the first, 0.06 for the second.

In the case of “HMQPSQTLSATVEFPDRLDRFLALAFPEVSRARFQRLIAEGHVSVEGVPATEIRHKLKAGQRVEAVIPPA”, the “soluble fraction (log2)” value was 0.0663.
